Patent publication US20250191685

System: KLF6 RTF CDKN1C #200, 8 phosphate-contact R to Q 8 phosphate-contacting Arg to Gln (Homo sapiens)
Experiment: cell_activity
Conditions: on-target activity reduced by only 12%; only CDKN1C upregulated in RNA-seq

For CDKN1C promoter site #200, which binding signal (% of unmodified) is on record?
The binding signal (% of unmodified) was 88.
